Measured values as given in article PMC10461225, “Creation of a Peptide Antagonist of the GFRAL–RET Receptor Complex for the Treatment of GDF15-Induced Malaise” (Journal of Medicinal Chemistry, 2023).
Square brackets hold non-standard residues; d marks the D form. Ends that are not written are not given here. Peptide text beside a SMILES is read from it. PEG2‑C4‑alkyne‑biotin = PEG2-C4-alkyne-modified biotin; Lys(N3) = [N-]=[N+]=NCCCC[C@H](N)C(=O)O; K‑azido = azido-modified lysine

Columns and labels:
[1] = biological target: GFRAL ECD (Homo sapiens) (UniProt Q6UXV0); details: cited from earlier work
[2] = tested on: Sprague–Dawley rats
Procedure: In a follow-up experiment, we evaluated responses to the gold standard antiemetic Ondansetron alone or in combination with GRASP to determine whether the combination would enhance the efficacy of the former compound in preventing CINV in rats.
All systemic treatments were delivered by intraperitoneal (IP) injection.
Rats (n = 98, 300–330 g) received IP injections of GRASP (100 nmol/kg), Ondansetron (2 mg/kg), both GRASP and Ondansetron together, or saline control […] before systemic administration of cisplatin. Six hours later, rats received a second injection of GRASP or vehicle control. Food and kaolin intake were measured at 3, 6, and 24 h postinjection.
All data were expressed as means ± SEM.

[3] = biological target: T1, Recombinant His-tagged human GFRAL (Ser19–Glu351) (human, UniProt Q6UXV0 19-351); experiment: SPR; GFRAL (S19-E351) immobilised by amine coupling (EDC/NHS) on a high-capacity carboxyl sensor (Nicoya OpenSPR); peptides or GDF15 as analyte; HBSS pH 7.4 running buffer without BSA; 20 uL/min; details: both partners purified
T1 construct: GDNF family receptor alpha-like (GFRAL), human, extracellular domain S19-E351 as defined by UniProt Q6UXV0; also called GFRAL–ECD; GFRAL (S19–E351); source: bought: ACRO Biosystems (GFA-H52H3), expressed in HEK293 cells
T1 sequence (looked up): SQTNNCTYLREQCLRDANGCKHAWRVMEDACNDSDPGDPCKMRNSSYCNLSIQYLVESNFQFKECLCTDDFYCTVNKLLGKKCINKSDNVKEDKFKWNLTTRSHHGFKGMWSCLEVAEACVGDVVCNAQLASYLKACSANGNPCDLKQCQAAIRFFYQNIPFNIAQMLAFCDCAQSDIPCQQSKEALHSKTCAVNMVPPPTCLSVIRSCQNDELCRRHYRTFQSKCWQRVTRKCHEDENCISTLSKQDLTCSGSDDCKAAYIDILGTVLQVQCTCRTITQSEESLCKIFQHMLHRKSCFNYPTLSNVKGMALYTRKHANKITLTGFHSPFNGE

[4] = biological target: T1, Recombinant His-tagged human GFRAL …; experiment: SPR; biotin-GRASP immobilised on a streptavidin-coated biotin sensor (Nicoya OpenSPR); GFRAL-ECD (20, 100, 200, 600 nM), GDF15 (1 uM) or RET (0.29 uM) as analyte; HBSS pH 7.4; 1:1 fit with local Bmax (TraceDrawer); details: both partners purified
[5] = biological target: T2, Full-length human GFRAL on stably transfected HEK293 cells (human, UniProt Q6UXV0 19-394); experiment: flow cytometry on cells; GRASPCy5 (0.1-1000 nM) in HBSS pH 7.4, 30 min at 37 °C, on HEK293 cells stably overexpressing full-length human GFRAL; untransfected HEK293 cells as control; details: one partner purified
T2 construct: GDNF family receptor alpha-like (GFRAL), human, full-length, overexpressed on HEK293 cells; also called GFRAL–HEK293 cells; GFRAL-expressing HEK293 cells; source: HEK293 cells stably overexpressing human GFRAL, bought: Creative Biogene (CSC-SC006226)
T2 sequence (looked up): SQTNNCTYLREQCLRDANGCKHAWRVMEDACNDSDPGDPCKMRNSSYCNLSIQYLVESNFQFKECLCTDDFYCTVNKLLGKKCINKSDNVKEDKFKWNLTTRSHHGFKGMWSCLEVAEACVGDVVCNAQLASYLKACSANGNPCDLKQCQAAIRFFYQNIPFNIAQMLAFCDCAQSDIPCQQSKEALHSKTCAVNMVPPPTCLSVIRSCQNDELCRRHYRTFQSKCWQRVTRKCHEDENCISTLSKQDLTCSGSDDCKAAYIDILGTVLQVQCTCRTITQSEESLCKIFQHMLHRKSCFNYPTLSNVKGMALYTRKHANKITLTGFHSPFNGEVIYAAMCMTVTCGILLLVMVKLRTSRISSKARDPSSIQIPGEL

[6] = GRASP 100 nmol/kg IP BID, Ondansetron 2 mg/kg IP, cisplatin 6 mg/kg IP, n = 10–16 per group
[7] = GRASP 100 nmol/kg IP BID alone or with Ondansetron 2 mg/kg IP, no cisplatin

## GDF15 (from UniProt Q99988)
[1]
  Kd: 1 nM

## Cc1nccn1CC1CCc2c(c3ccccc3n2C)C1=O (centres unmarked) [Ondansetron]
[2]; [6]
  effect on cisplatin-induced anorexia: Neither Ond (2 mg/kg of IP) nor GRASP (100 nmol/kg of IP [BID]) alone had any impact
  effect on cisplatin-induced kaolin intake: significantly reduced cisplatin-induced kaolin intake

## CC[C@H](C)[C@H](NC(=O)[C@H](CC(C)C)NC(=O)[C@H](CCC(=O)O)NC(=O)[C@H](CCC(=O)O)NC(=O)[C@H](CCCCN=[N+]=[N-])NC(=O)[C@@H](N)[C@@H](C)O)C(=O)N[C@@H](Cc1c[nH]cn1)C(=O)N[C@@H](C)C(=O)N[C@@H](Cc1c[nH]cn1)C(=O)N[C@@H](C)C(=O)N[C@@H](CC(=O)O)C(=O)N1CCC[C@H]1C(=O)N[C@@H](CCSC)C(=O)N[C@H](C(=O)N[C@@H](CC(C)C)C(=O)N[C@H](C(=O)N[C@@H](CCC(N)=O)C(=O)N[C@@H](CCCCN)C(=O)N[C@H](C(=O)N[C@@H](CC(=O)O)C(=O)N[C@H](C(=O)NCC(=O)N[C@H](C(=O)N[C@@H](CO)C(=O)N[C@@H](CC(C)C)C(=O)N[C@@H](CCC(N)=O)C(=O)N[C@H](C(=O)N[C@@H](Cc1ccc(O)cc1)C(=O)N[C@@H](CC(=O)O)C(N)=O)[C@@H](C)O)C(C)C)[C@@H](C)O)[C@@H](C)O)[C@@H](C)CC)C(C)C [GRASP] (H-T[Lys(N3)]EELIHAHADPMVLIQKTDTGVSLQTYD-NH2)
[2]; [7]
  impact on food or kaolin intake in healthy rats: had no impact on food or kaolin intake in healthy rats
  tolerability in healthy rats: well-tolerated

B1: GRASP (K2-azido-modified 29-amino acid peptide) (peptide)
peptide: T[K‑azido]EELIHAHADPMVLIQKTDTGVSLQTYD
notes: designed peptide with GDF15-like loop regions; printed as T(K-azido)[residues removed]; In-house synthesis was on a Rink amide resin, which would give a C-terminal amide; also called GFRAL receptor antagonist; unlabeled GRASP; source: synthetic peptide (Genscript or in-house solid-phase synthesis), HPLC purified to >95%
[3]
  Kd: 179000 nM

B2: Biotinylated GRASP (peptide)
peptide: T[K‑azido](PEG2‑C4‑alkyne‑biotin)EELIHAHADPMVLIQKTDTGVSLQTYD
notes: GRASP peptide as m1, biotin on the azido-lysine at position 2; Held on the sensor through biotin-streptavidin (His-tagged streptavidin on a biotin sensor); also called biotin-conjugated GRASP; biotin-GRASP; source: synthetic peptide, conjugated to PEG2-C4-alkyne biotin, RP-HPLC purified (95%)
[4]
  Kd: 74.1 nM

B3: GRASPCy5 (peptide)
peptide: TKEELIHAHADPMVLIQKTDTGVSLQTYD
modifications: not fully specified (residue 2); printed as T(K-azido)EELIHAHADPMVLIQKTDTGVSLQTYD
notes: GRASP peptide as m1, sulfo-Cy5 on the azido-lysine at position 2; also called sulfo-Cy5 GRASP conjugate; GRASP(K2)–fluorophore conjugate; source: synthetic peptide, conjugated to DBCO-Cy5, RP-HPLC purified (95%)
[5]
  Kd: 8.98 nM
